For one assay, the target named is SmN-SNAPIN (human) (UniProt O95295). Put plainly: split reporter (BiFC, NanoBiT).
For a further assay, the target named is T1, Flag-M1 (influenza A virus A/WSN/33 (H1N1), UniProt P05777 1-252).
T1 construct: also called Flag-tagged M1; M1 protein; not shown: Flag, N-terminal, kept
The assay is described as follows: pull-down. Particulars: both partners purified.

In the next assay the target is T2, SmN-SNAPIN (human, UniProt O95295 1-136).
T2 construct: also called SNAPIN-SmBiT; not shown: SmBiT, N-terminal, kept
T2 sequence (looked up): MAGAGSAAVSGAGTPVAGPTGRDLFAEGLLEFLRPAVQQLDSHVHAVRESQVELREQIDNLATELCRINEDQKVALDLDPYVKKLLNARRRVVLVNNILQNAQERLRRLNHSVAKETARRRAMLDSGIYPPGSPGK
The assay is described as follows: split reporter (BiFC, NanoBiT). Particulars: partners not purified.

T1 sequence (P05777 whole entry): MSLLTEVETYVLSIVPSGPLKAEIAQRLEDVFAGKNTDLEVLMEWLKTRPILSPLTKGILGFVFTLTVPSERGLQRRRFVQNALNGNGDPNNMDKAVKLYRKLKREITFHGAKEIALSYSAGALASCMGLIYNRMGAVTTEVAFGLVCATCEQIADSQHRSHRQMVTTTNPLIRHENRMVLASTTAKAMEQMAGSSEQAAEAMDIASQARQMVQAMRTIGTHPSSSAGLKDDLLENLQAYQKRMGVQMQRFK

Regarding LgN-NS2 (natural protein), the fold signal increase relative to the negative control with SmN-SNAPIN (human) turned out to be 2.37 fold.

B1: GST-SNAPIN (natural protein, human, UniProt O95295 1-136, looked up)
chain: T2 sequence (looked up)
notes: also called GST-tagged SNAPIN
As for B1, the binding result with Flag-M1 is recorded as “binds”.

B2: LgN-M2 (natural protein)
chain: MSLLTEVETPIRNEWGCRCNDSSDPLVIAANIIGILHLILWILDRLFFKCIYRRFKYGLKRGPSTEGVPESMREEYRKEQQNAVDVDDGHFVNIELE
notes: also called matrix protein 2; not shown: LgBiT, N-terminal, kept
For B2, in the assay with SmN-SNAPIN, the “fold signal increase relative to the negative control” value was found to be 8.62 fold.
